Assay results taken from the supplement of paper PMC10065799, “High-throughput profiling of sequence recognition by tyrosine kinases and SH2 domains using bacterial peptide display” (eLife, 2023).

biological target: FGFR3 (UniProt P22607); experiment: phosphorylation enrichment, bacterial display (enrichment ratio); higher = better substrate or ligand; peptides without Tyr show the background
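Note: 11-residue human phosphosite peptides and single-mutation variants displayed on the E. coli surface, counted by deep sequencing, each peptide's frequency after selection divided by its frequency in the unselected input library; frequency after pTyr selection over input frequency; kinase dosed for 20-30% of maximal phosphorylation in three min.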

FGFR3, sequence (P22607 whole entry, looked up): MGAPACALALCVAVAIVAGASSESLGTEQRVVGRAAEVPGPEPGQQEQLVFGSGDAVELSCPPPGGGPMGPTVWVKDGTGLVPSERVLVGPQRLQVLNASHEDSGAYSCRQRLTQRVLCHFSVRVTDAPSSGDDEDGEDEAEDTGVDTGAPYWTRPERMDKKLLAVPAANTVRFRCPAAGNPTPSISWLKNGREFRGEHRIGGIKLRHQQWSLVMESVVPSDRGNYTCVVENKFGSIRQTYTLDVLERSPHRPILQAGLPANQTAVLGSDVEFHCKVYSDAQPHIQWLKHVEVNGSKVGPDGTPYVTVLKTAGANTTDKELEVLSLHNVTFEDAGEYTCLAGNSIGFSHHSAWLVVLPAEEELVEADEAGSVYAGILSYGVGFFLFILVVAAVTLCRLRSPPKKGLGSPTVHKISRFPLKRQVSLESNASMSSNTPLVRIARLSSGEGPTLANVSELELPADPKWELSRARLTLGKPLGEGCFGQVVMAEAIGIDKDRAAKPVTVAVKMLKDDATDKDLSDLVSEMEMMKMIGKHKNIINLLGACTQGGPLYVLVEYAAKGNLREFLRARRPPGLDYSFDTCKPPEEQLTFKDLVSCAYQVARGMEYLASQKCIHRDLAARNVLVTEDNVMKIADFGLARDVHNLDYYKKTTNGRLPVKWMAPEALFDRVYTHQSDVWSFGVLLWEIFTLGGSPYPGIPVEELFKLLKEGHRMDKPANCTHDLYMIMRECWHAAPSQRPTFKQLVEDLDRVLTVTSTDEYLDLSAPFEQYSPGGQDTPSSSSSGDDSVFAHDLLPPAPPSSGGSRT

Sequence	phosphorylation enrichment
HGEAYYSEVKA [PAK5_Y182_P187A]	1.85
RGKLFYQEVPA [METTL11B_Y76_A72G]	1.29
SCTFTCLLGDR [ETHE1_Y38_Y38C]	0.669
HTVVSYAKVRA [CLOCK_Y378_E380K]	0.933
GPRSLYNGLVA [UCP2_Y79]	0.486
IVAREYFSDAD [CAMK2A_Y106_E109D_YF]	0.583
ANLAKYGNPNE [BCHE_Y505_F502L]	0.65
PLLEYYRDIFT [CDAN1_Y713]	5.58
ALAHKYPGGGG [HBB_Y146_H147P]	0.662
QTENKYVSVSG [EIF2AK3_Y565_D566V]	0.581
RFFTTYDTNGR [CLCA1_Y665_YF]	0.878
EVLKNYSQQKD [GOLGA4_Y1551_N1552S]	0.56
SMVVPYEPPEV [TP53_Y220_V216M]	0.81
VYYDLYGGEKF [PTPN11_Y66_D61V]	12.8
LEFGDYHPLKP [VPS35L_Y32]	7.68
WGTPEYDSVVA [MAP1A_Y1883_A1881P]	0.593
DLDTDYGSGFP [RNASEH2A_Y206_YF]	0.588

Sequence	phosphorylation enrichment
MKKKTYAMGGG [GAN_Y424_I423T]	0.531
VQVAYYTVMMN [SPATA17_Y84_M86V]	4.41
GDEVEYMLVSF [GCLC_Y53]	3.39
IVEYAYNDKAI [PUM3_Y259]	0.702
GGMAEYTRLHN [EHHADH_Y4]	0.442
KMATAYIRRMS [BCO1_Y264]	0.431
NFDRIYIYHLR [MYOF_Y1137_V1136I]	0.787
VGSEDYGRDLT [SPTAN1_Y1792]	1.04
DDLEVYLKHPL [SACS_Y3477_L3481P]	0.735
LRFKQYLRNPP [SHC1_Y315]	0.767
HIKHNYECLVF [XRCC5_Y416_YF]	1.09
PINEPYGDDMD [JUP_Y693]	1.34
LHQSTYQCFDV [SLC7A14_Y693_R695C_YF]	1.11
KPEKTYGLRNE [CEP43_Y267_K271N]	0.371
QAPPVYLDVLG [NTRK1_Y791]	1.49
CDDGKYVYVVT [RPS6KA3_Y488_Y483C]	1.15

tested on: Fer (mouse); experiment: as above

Sequence	phosphorylation enrichment
HGEAYYSEVKA [PAK5_Y182_P187A]	3.92
RGKLFYQEVPA [METTL11B_Y76_A72G]	0.719
SCTFTCLLGDR [ETHE1_Y38_Y38C]	0.458
HTVVSYAKVRA [CLOCK_Y378_E380K]	0.673
GPRSLYNGLVA [UCP2_Y79]	0.386
IVAREYFSDAD [CAMK2A_Y106_E109D_YF]	0.418
ANLAKYGNPNE [BCHE_Y505_F502L]	0.391
PLLEYYRDIFT [CDAN1_Y713]	1.02
ALAHKYPGGGG [HBB_Y146_H147P]	0.432
QTENKYVSVSG [EIF2AK3_Y565_D566V]	0.626
RFFTTYDTNGR [CLCA1_Y665_YF]	0.688
EVLKNYSQQKD [GOLGA4_Y1551_N1552S]	0.417
SMVVPYEPPEV [TP53_Y220_V216M]	0.617
VYYDLYGGEKF [PTPN11_Y66_D61V]	2.99
LEFGDYHPLKP [VPS35L_Y32]	0.846
WGTPEYDSVVA [MAP1A_Y1883_A1881P]	2.73
DLDTDYGSGFP [RNASEH2A_Y206_YF]	0.465

Sequence	phosphorylation enrichment
MKKKTYAMGGG [GAN_Y424_I423T]	0.567
VQVAYYTVMMN [SPATA17_Y84_M86V]	1.97
GDEVEYMLVSF [GCLC_Y53]	2.43
IVEYAYNDKAI [PUM3_Y259]	0.631
GGMAEYTRLHN [EHHADH_Y4]	0.359
KMATAYIRRMS [BCO1_Y264]	0.362
NFDRIYIYHLR [MYOF_Y1137_V1136I]	0.611
VGSEDYGRDLT [SPTAN1_Y1792]	0.621
DDLEVYLKHPL [SACS_Y3477_L3481P]	0.558
LRFKQYLRNPP [SHC1_Y315]	0.623
HIKHNYECLVF [XRCC5_Y416_YF]	0.665
PINEPYGDDMD [JUP_Y693]	0.837
LHQSTYQCFDV [SLC7A14_Y693_R695C_YF]	2.23
KPEKTYGLRNE [CEP43_Y267_K271N]	0.321
QAPPVYLDVLG [NTRK1_Y791]	0.69
CDDGKYVYVVT [RPS6KA3_Y488_Y483C]	0.798

biological target: Fes (UniProt P07332); experiment: as above
Sequence (P07332 whole entry, looked up): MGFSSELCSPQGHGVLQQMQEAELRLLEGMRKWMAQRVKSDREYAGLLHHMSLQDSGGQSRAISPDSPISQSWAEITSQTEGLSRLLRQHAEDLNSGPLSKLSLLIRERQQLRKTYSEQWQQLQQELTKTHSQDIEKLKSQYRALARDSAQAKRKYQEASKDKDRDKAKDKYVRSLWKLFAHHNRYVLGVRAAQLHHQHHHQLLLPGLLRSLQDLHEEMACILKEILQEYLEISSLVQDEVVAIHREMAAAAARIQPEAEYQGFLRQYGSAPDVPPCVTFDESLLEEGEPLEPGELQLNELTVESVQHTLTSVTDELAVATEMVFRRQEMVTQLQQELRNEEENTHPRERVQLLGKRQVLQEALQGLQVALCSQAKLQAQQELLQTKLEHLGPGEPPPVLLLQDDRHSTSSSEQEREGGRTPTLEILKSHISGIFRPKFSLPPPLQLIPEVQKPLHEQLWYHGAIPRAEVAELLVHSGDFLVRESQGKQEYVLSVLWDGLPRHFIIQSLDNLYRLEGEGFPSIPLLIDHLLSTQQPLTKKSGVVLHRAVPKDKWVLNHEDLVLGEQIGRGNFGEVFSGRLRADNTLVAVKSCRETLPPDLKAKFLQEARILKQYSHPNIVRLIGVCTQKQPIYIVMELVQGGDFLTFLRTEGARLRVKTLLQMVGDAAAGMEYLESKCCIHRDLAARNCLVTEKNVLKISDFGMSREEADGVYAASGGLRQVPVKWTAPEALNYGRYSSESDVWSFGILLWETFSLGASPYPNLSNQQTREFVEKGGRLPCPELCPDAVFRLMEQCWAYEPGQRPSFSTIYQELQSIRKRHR

Sequence	phosphorylation enrichment
HGEAYYSEVKA [PAK5_Y182_P187A]	0.773
RGKLFYQEVPA [METTL11B_Y76_A72G]	1.05
SCTFTCLLGDR [ETHE1_Y38_Y38C]	1.03
HTVVSYAKVRA [CLOCK_Y378_E380K]	1.3
GPRSLYNGLVA [UCP2_Y79]	0.543
IVAREYFSDAD [CAMK2A_Y106_E109D_YF]	0.922
ANLAKYGNPNE [BCHE_Y505_F502L]	0.779
PLLEYYRDIFT [CDAN1_Y713]	1.81
ALAHKYPGGGG [HBB_Y146_H147P]	0.632
QTENKYVSVSG [EIF2AK3_Y565_D566V]	1.51
RFFTTYDTNGR [CLCA1_Y665_YF]	0.951
EVLKNYSQQKD [GOLGA4_Y1551_N1552S]	0.609
SMVVPYEPPEV [TP53_Y220_V216M]	1.33
VYYDLYGGEKF [PTPN11_Y66_D61V]	1.13
LEFGDYHPLKP [VPS35L_Y32]	1.05
WGTPEYDSVVA [MAP1A_Y1883_A1881P]	1.15
DLDTDYGSGFP [RNASEH2A_Y206_YF]	0.978

Sequence	phosphorylation enrichment
MKKKTYAMGGG [GAN_Y424_I423T]	0.862
VQVAYYTVMMN [SPATA17_Y84_M86V]	1.71
GDEVEYMLVSF [GCLC_Y53]	1.1
IVEYAYNDKAI [PUM3_Y259]	1.27
GGMAEYTRLHN [EHHADH_Y4]	0.597
KMATAYIRRMS [BCO1_Y264]	0.572
NFDRIYIYHLR [MYOF_Y1137_V1136I]	1.2
VGSEDYGRDLT [SPTAN1_Y1792]	1.44
DDLEVYLKHPL [SACS_Y3477_L3481P]	1.31
LRFKQYLRNPP [SHC1_Y315]	1.11
HIKHNYECLVF [XRCC5_Y416_YF]	1.09
PINEPYGDDMD [JUP_Y693]	1.75
LHQSTYQCFDV [SLC7A14_Y693_R695C_YF]	1.25
KPEKTYGLRNE [CEP43_Y267_K271N]	0.569
QAPPVYLDVLG [NTRK1_Y791]	1.45
CDDGKYVYVVT [RPS6KA3_Y488_Y483C]	1.6

biological target: Fyn (UniProt P06241); experiment: as above
Sequence (P06241 whole entry, looked up): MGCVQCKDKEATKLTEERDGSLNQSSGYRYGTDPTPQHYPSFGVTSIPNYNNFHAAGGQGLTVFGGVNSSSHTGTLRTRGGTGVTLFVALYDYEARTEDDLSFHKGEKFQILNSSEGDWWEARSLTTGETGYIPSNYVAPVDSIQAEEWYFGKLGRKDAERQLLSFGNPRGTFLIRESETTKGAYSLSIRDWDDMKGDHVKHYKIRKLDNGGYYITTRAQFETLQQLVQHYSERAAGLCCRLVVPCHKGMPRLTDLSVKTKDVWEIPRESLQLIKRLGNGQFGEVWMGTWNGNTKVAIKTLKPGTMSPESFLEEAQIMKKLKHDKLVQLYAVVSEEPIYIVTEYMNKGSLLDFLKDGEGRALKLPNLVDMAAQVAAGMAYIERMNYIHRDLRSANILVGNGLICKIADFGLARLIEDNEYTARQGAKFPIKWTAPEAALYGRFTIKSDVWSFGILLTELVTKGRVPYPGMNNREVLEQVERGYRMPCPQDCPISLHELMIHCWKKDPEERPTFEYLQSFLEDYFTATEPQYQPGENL

Sequence	phosphorylation enrichment
HGEAYYSEVKA [PAK5_Y182_P187A]	1.68
RGKLFYQEVPA [METTL11B_Y76_A72G]	0.544
SCTFTCLLGDR [ETHE1_Y38_Y38C]	0.458
HTVVSYAKVRA [CLOCK_Y378_E380K]	1.23
GPRSLYNGLVA [UCP2_Y79]	0.427
IVAREYFSDAD [CAMK2A_Y106_E109D_YF]	0.378
ANLAKYGNPNE [BCHE_Y505_F502L]	0.385
PLLEYYRDIFT [CDAN1_Y713]	0.704
ALAHKYPGGGG [HBB_Y146_H147P]	0.559
QTENKYVSVSG [EIF2AK3_Y565_D566V]	0.627
RFFTTYDTNGR [CLCA1_Y665_YF]	0.627
EVLKNYSQQKD [GOLGA4_Y1551_N1552S]	0.438
SMVVPYEPPEV [TP53_Y220_V216M]	0.462
VYYDLYGGEKF [PTPN11_Y66_D61V]	5.88
LEFGDYHPLKP [VPS35L_Y32]	0.696
WGTPEYDSVVA [MAP1A_Y1883_A1881P]	0.566
DLDTDYGSGFP [RNASEH2A_Y206_YF]	0.45

Sequence	phosphorylation enrichment
MKKKTYAMGGG [GAN_Y424_I423T]	0.428
VQVAYYTVMMN [SPATA17_Y84_M86V]	1.7
GDEVEYMLVSF [GCLC_Y53]	0.841
IVEYAYNDKAI [PUM3_Y259]	0.505
GGMAEYTRLHN [EHHADH_Y4]	0.32
KMATAYIRRMS [BCO1_Y264]	0.425
NFDRIYIYHLR [MYOF_Y1137_V1136I]	0.732
VGSEDYGRDLT [SPTAN1_Y1792]	0.588
DDLEVYLKHPL [SACS_Y3477_L3481P]	1.26
LRFKQYLRNPP [SHC1_Y315]	0.551
HIKHNYECLVF [XRCC5_Y416_YF]	0.709
PINEPYGDDMD [JUP_Y693]	1.03
LHQSTYQCFDV [SLC7A14_Y693_R695C_YF]	3.33
KPEKTYGLRNE [CEP43_Y267_K271N]	0.37
QAPPVYLDVLG [NTRK1_Y791]	1.01
CDDGKYVYVVT [RPS6KA3_Y488_Y483C]	0.84
